Columns and labels:
[1] = target: T1, GPR64 protein (SEQ ID NO:2) (UniProt Q8IZP9 38-1017); assay: FACS
T1 chain: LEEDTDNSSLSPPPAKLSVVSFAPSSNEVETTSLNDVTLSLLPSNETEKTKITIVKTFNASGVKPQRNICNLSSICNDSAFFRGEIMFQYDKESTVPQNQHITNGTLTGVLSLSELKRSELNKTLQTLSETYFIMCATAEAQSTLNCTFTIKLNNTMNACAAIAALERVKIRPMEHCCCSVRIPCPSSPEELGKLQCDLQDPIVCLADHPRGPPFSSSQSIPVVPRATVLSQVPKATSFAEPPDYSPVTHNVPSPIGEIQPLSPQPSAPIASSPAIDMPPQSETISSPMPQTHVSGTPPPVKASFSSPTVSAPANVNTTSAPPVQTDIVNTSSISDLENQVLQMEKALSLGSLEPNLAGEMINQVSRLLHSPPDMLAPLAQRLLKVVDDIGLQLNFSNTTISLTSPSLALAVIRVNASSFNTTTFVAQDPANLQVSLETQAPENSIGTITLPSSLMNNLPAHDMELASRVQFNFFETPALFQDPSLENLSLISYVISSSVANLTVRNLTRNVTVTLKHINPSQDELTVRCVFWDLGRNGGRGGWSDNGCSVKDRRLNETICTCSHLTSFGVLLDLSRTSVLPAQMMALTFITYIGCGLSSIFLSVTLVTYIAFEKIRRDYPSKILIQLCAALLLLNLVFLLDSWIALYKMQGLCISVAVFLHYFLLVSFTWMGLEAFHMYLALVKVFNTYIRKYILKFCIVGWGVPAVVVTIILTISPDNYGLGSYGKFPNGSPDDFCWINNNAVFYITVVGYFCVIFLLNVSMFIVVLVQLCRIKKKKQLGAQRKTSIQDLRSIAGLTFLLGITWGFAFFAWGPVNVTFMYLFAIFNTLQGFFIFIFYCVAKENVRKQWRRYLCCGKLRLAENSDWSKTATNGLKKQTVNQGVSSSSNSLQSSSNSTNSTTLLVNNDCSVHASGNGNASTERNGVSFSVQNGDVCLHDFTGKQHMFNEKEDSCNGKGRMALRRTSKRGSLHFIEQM

[2] = target: T2, human GPR64-Fc fusion protein (human, UniProt Q8IZP9 38-591); assay: affinity screen of Example 4 (Biacore/FACS); form of the target not restated
T2 construct: Immunogen, and the analyte in the Biacore kinetics

[3] = target: T3, GPR64 protein (SEQ ID NO:2) (human, UniProt Q8IZP9 38-1017); assay: competitive FACS on H460 cells, confirmed by Biacore
T3 construct: Endogenous GPR64 on human tumor cells (NCI-H460) or in tissue sections; also called Ov1; HE6
Experimental: Epitope mapping was performed by competitive FACS assay. Briefly, H460 cells were incubated with 25 ug/ml unlabeled antibody for 1 hr on ice, at which time various amounts of FITC labeled antibody was added. After 30 additional minutes, cells were washed one time and fluorescence was measured by flow cytometry. All data was confirmed by Biacore.

- EC50 [1]: ~4 nM
- binding result [2]: binds
- binding result [3]: binds
B1: GPR64-18 (antibody, V domains shown)
VH: QVSLKESGPGILQPSQTLSLTCSFSGFSLSTSGMGVSWIRQPSGKGLEWLAHIYWDDDKRYNPSLKSRLTISKDTSSNLVFLKITSVDTADTATYYCARREVRRDYYAMDYWGQGTSVTVSS
VL: SIVMTQTPKFLLVSAGDRITIACRASQSVSNDVAWYQQKPGQSPKLLINYTSNRYTGVPDRFTGSGYGTDFTFTISTVQAEDLAVYFCQQAYSSPWTFGGGTKLEIK
notes: Mouse monoclonal antibody raised against GPR64-Fc; also called GPR64-18 antibody
